# Test results reported in patent publication US11180767B2, “Protease deficient filamentous fungal cells and methods of use thereof” (GLYKOS FINLAND OY, priority 2012, dated 2021).
# B1: SBTI: soybean trypsin inhibitor, trypsin and subtilisin inhibitor (protein)
# chain: DFVLDNEGNPLENGGTYYILSDITAFGGIRAAPTGNERCPLTVVQSRNELDKGIGTIISSPYRIRFIAEGHPLSLKFDSFAVIMLCVGIPTEWSVVEDLPEGPAVKIGENKDAMDGWFRLERVSDDEFNNYKLVFCPQQAEDDKCGDIGISIDHDDGTRRLVVSKNKPLVVQFQKLDKESL
# Tested on: SIP purified proteases (PEP2, PEP3, PEP4, PEP5, GAP1, SLP2)
# Test: Protease activity of SIP purified fractions against casein with inhibitors (EnzChek)
# Format: biochemical, Trichoderma reesei
# Conditions: pH 5.5
# Description: Protease activity was then tested against casein both in the presence and absence of protease inhibitors. Protease activity against casein was tested using the EnzChek protease assay kit (Molecular probes #E6638, green fluorescent casein substrate). The working stock solution was prepared by diluting the stock to 10 μg ml in 50 mM sodium citrate, pH 5.5. The purified protease fractions (10 μl) were diluted with […] of sodium citrate, pH 5.5. 100 μl of the diluted substrate was combined with the diluted protease fractions in a 96 well sample plate. The plate was then covered and kept at 37° C. for one to three hours. Fluorescence readings were taken at one, two, and three hours with a Varioskan fluorescent plate reader (Thermo Scientific) using 485 nm excitation and 530 nm emission.
# The SIP inhibitor peptide, pepstatin A, LIP peptide, SBTI, and chymostatin were used as inhibitors. […] SIP, LIP, and pepstatin A were used at a concentration of 60 μM, and SBTI was used at a concentration of 200 μg/ml.
molecule,measurement,setting,value
B1,proteases inhibited,"SIP, LIP, pepstatin A 60 μM, SBTI 200 μg/ml",able to inhibit SLP2 and PEP4
same,inhibition of SIP purified protease activity against casein,FIG. 11,able to inhibit the SLP2 protease
